# Experimental data reported in patent publication US20140271668.
# B1: lentiviral USP13 (expressed in transfected neuroblastoma cells) (protein)
# chain: MQRRGALFGMPGGSGGRKMAAGDIGELLVPHMPTIRVPRSGDRVYKNECAFSYDSPNSEGGLYVCMNTFLAFGREHVERHFRKTGQSVYMHLKRHVREKVRGASGGALPKRRNSKIFLDLDTDDDLNSDDYEYEDEAKLVIFPDHYEIALPNIEELPALVTIACDAVLSSKSPYRKQDPDTWENELPVSKYANNLTQLDNGVRIPPSGWKCARCDLRENLWLNLTDGSVLCGKWFFDSSGGNGHALEHYRDMGYPLAVKLGTITPDGADVYSFQEEEPVLDPHLAKHLAHFGIDMLHMHGTENGLQDNDIKLRVSEWEVIQESGTKLKPMYGPGYTGLKNLGNSCYLSSVMQAIFSIPEFQRAYVGNLPRIFDYSPLDPTQDFNTQMTKLGHGLLSGQYSKPPVKSELIEQVMKEEHKPQQNGISPRMFKAFVSKSHPEFSSNRQQDAQEFFLHLVNLVERNRIGSENPSDVFRFLVEERIQCCQTRKVRYTERVDYLMQLPVAMEAATNKDELIAYELTRREAEANRRPLPELVRAKIPFSACLQAFSEPENVDDFWSSALQAKSAGVKTSRFASFPEYLVVQIKKFTFGLDWVPKKFDVSIDMPDLLDINHLRARGLQPGEEELPDISPPIVIPDDSKDRLMNQLIDPSDIDESSVMQLAEMGFPLEACRKAVYFTGNMGAEVAFNWIIVHMEEPDFAEPLTMPGYGGAASAGASVFGASGLDNQPPEEIVAIITSMGFQRNQAIQALRATNNNLERALDWIFSHPEFEEDSDFVIEMENNANANIISEAKPEGPRVKDGSGTYELFAFISHMGTSTMSGHYICHIKKEGRWVIYNDHKVCASERPPKDLGYMYFYRRIPS
# Legend:
# [1] = molecular target: T1, non-catalytic mutant T240R parkin (lentiviral), O60260
# T1 chain: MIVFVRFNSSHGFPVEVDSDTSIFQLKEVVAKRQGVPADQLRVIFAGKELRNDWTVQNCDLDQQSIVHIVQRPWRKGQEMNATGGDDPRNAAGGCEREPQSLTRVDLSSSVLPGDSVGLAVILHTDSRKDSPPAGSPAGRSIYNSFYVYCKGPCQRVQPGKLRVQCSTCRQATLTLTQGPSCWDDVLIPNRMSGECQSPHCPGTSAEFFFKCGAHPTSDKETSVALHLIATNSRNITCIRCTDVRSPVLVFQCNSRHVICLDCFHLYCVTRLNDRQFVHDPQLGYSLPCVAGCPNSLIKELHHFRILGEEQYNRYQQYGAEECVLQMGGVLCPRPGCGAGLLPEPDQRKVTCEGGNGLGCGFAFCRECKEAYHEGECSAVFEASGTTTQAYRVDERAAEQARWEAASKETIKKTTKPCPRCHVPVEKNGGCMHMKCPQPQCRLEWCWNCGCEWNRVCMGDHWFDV
# [2] = molecular target: lentiviral wild type parkin (expressed in transfected neuroblastoma cells), O60260
protein,measurement,setting,value
B1,level of ubiquitinated proteins (parkin immunoprecipitation and Western blot with anti-ubiquitin antibodies),[1],the level of ubiquitinated proteins when mutant T240R parkin was expressed was unaltered in the presence or absence of USP13
same,"parkin ubiquitination (E3LITE ubiquitin ligase ELISA with E1, UbcH7, ATP and WT ubiquitin)",[2],USP13 significantly decreased (36%) parkin ubiquitination
same,ubiquitinated parkin level (parkin immunoprecipitation and Western blot with anti-ubiquitin antibodies),[2],decreased ubiquitinated parkin level when parkin was co-expressed with USP13
